For the series, the system named is CodY (Streptococcus pneumoniae D39). Kind of series: EMSA. The note with it: lowest CodY concentration giving binding, 10 nM DNA, 5X binding buffer: 20 mM Tris-HCl pH 7.5, 30 mM KCl, 1 mM DTT, 1 mM EDTA, 10% glycerol, room temperature, 30 min (Fig 4A,B) or 20 min (Fig 4C), 20 ul, 8% ….

Regarding tpxD promoter probe (FAM), the binding by setting is: (2 mM H2O2) 400 nM; (no H2O2, no BCAA) 600 nM.

The record behind these values is paper PMC5443158.
